How the values were obtained:
[1] = molecular target: native β-vignin, the vicilin (7S globulin) storage protein of cowpea (Vigna unguiculata) seeds (Vigna unguiculata (cowpea)); test: SEC; Superdex 75 10/300 GL, 25 mM phosphate buffer pH 7.0, 150 mM NaCl, 0.5 mL/min; peak areas by Multiple Peak Fit; monomer to trimer
[2] = molecular target: native β-vignin, the vicilin (7S globulin) storage protein of cowpea (Vigna unguiculata) seeds (Vigna unguiculata (cowpea)); test: SEC; Superdex 200 10/300 GL, 25 mM Tris-HCl pH 9.0, 150 mM or 300 mM NaCl; 50 μg β-vignin (0.5 mg/mL) loaded
[3] = molecular target: digested β-vignin (β-vignin incubated 30 h with the 6 d.a.i. germinating cowpea seed extract): 27 kDa core with the proteolytic products that stay with it (Vigna unguiculata (cowpea)); test: SEC; Superdex 75 10/300 GL, 25 mM phosphate buffer pH 7.0, 150 mM NaCl; β-vignin digested 30 h with the 6 d.a.i. extract, 50 μg loaded; eluted fractions on SDS-PAGE (silver stained); digest not purified from the extract

Substance: native β-vignin, the vicilin (7S globulin) storage protein of cowpea (Vigna unguiculata) seeds (natural protein)
- percent monomer [1]: 80%
- percent trimer [1]: 20%
- stoichiometry N [2]: 3

Substance: digested β-vignin (β-vignin incubated 30 h with the 6 d.a.i. germinating cowpea seed extract): 27 kDa core with the proteolytic products that stay with it (complex)
- percent monomer [3]: 90.2%
- percent trimer [3]: 9.8%
